Where no end group is shown, it is not given here. [ ]: non-standard residue; d: D form. Lys(Me3) = C[N+](C)(C)CCCC[C@H](N)C(=O)O
Biological target: His-tagged EED (His6X-EED), full length (UniProt O75530 1-441)
Experiment: ITC

Sequence of His-tagged EED (His6X-EED), full length (O75530 whole entry): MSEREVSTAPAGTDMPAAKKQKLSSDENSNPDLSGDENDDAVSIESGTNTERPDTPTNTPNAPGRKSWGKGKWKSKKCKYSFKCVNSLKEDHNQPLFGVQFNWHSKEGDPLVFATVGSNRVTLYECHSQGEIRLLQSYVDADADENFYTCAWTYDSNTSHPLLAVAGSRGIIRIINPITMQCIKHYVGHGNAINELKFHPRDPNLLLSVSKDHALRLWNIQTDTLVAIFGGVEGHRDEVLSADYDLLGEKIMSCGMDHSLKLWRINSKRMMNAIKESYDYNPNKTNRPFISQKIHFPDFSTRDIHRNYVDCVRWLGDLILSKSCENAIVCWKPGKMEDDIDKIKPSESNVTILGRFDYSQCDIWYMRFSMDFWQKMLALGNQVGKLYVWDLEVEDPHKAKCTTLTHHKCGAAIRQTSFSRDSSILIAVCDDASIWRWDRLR

| Kd | Binder |
| --- | --- |
| 1.14 ± 0.14 µM | XKF (N-terminal (2S,3aS,7aS)-octahydro-1H-indole cap; methyl-isopropyl lysine (Kme,iPr); C-terminal piperidinyl ring in place of leucine) [UNC5115] |
| 8.82 ± 2.06 µM | QR[Lys(Me3)]FA (peptide, UniProt Q92833 114-118, looked up) [Jarid2_(114–118)K116me3] |

— publication PMC5376495 (ACS combinatorial science, 2017)
